{
  "source": "paper doi:10.1101/2025.03.07.642025",
  "about": "“The TONSL-MMS22L complex and FANCM form an interdependent complex on chromatin to counter replication stress” (bioRxiv, 2025)",
  "binders": {"B1": {"name": "TONSL (natural protein, human (endogenous in HeLa), UniProt Q96HA7 1-1378, looked up)", "chain": "MSLERELRQLSKAKAKAQRAGQRREEAALCHQLGELLAGHGRYAEALEQHWQELQLRERADDPLGCAVAHRKIGERLAEMEDYPAALQHQHQYLELAHSLRNHTELQRAWATIGRTHLDIYDHCQSRDALLQAQAAFEKSLAIVDEELEGTLAQGELNEMRTRLYLNLGLTFESLQQTALCNDYFRKSIFLAEQNHLYEDLFRARYNLGTIHWRAGQHSQAMRCLEGARECAHTMRKRFMESECCVVIAQVLQDLGDFLAAKRALKKAYRLGSQKPVQRAAICQNLQHVLAVVRLQQQLEEAEGRDPQGAMVICEQLGDLFSKAGDFPRAAEAYQKQLRFAELLDRPGAERAIIHVSLATTLGDMKDHHGAVRHYEEELRLRSGNVLEEAKTWLNIALSREEAGDAYELLAPCFQKALSCAQQAQRPQLQRQVLQHLHTVQLRLQPQEAPETETRLRELSVAEDEDEEEEAEEAAATAESEALEAGEVELSEGEDDTDGLTPQLEEDEELQGHLGRRKGSKWNRRNDMGETLLHRACIEGQLRRVQDLVRQGHPLNPRDYCGWTPLHEACNYGHLEIVRFLLDHGAAVDDPGGQGCEGITPLHDALNCGHFEVAELLLERGASVTLRTRKGLSPLETLQQWVKLYRRDLDLETRQKARAMEMLLQAAASGQDPHSSQAFHTPSSLLFDPETSPPLSPCPEPPSNSTRLPEASQAHVRVSPGQAAPAMARPRRSRHGPASSSSSSEGEDSAGPARPSQKRPRCSATAQRVAAWTPGPASNREAATASTSRAAYQAAIRGVGSAQSRLGPGPPRGHSKALAPQAALIPEEECLAGDWLELDMPLTRSRRPRPRGTGDNRRPSSTSGSDSEESRPRARAKQVRLTCMQSCSAPVNAGPSSLASEPPGSPSTPRVSEPSGDSSAAGQPLGPAPPPPIRVRVQVQDHLFLIPVPHSSDTHSVAWLAEQAAQRYYQTCGLLPRLTLRKEGALLAPQDLIPDVLQSNDEVLAEVTSWDLPPLTDRYRRACQSLGQGEHQQVLQAVELQGLGLSFSACSLALDQAQLTPLLRALKLHTALRELRLAGNRLGDKCVAELVAALGTMPSLALLDLSSNHLGPEGLRQLAMGLPGQATLQSLEELDLSMNPLGDGCGQSLASLLHACPLLSTLRLQACGFGPSFFLSHQTALGSAFQDAEHLKTLSLSYNALGAPALARTLQSLPAGTLLHLELSSVAAGKGDSDLMEPVFRYLAKEGCALAHLTLSANHLGDKAVRDLCRCLSLCPSLISLDLSANPEISCASLEELLSTLQKRPQGLSFLGLSGCAVQGPLGLGLWDKIAAQLRELQLCSRRLCAEDRDALRQLQPSRPGPGECTLDHGSKLFFRRL", "notes": "TONSL, human, endogenous in HeLa cells; source: endogenous, HeLa"}, "B2": {"name": "MMS22L (natural protein, human (endogenous in HeLa), UniProt Q6ZRQ5 1-1243, looked up)", "chain": "MENCSAASTFLTDSLELELGTEWCKPPYFSCAVDNRGGGKHFSGESYLCSGALKRLILNLDPLPTNFEEDTLEIFGIQWVTETALVNSSRELFHLFRQQLYNLETLLQSSCDFGKVSTLHCKADNIRQQCVLFLHYVKVFIFRYLKVQNAESHVPVHPYEALEAQLPSVLIDELHGLLLYIGHLSELPSVNIGAFVNQNQIKLFPPSWHLLHLHLDIHWLVLEILYMLGEKLKQVVYGHQFMNLASDNLTNISLFEEHCETLLCDLISLSLNRYDKVRSSESLMSDQCPCLCIKELWVLLIHLLDHRSKWFVSESFWNWLNKLLKTLLEKSSDRRRSSMPVIQSRDPLGFSWWIITHVASFYKFDRHGVPDEMRKVESNWNFVEELLKKSISVQGVILEEQLRMYLHCCLTLCDFWEPNIAIVTILWEYYSKNLNSSFSISWLPFKGLANTMKSPLSMLEMVKTCCCDKQDQELYKSSSSYTIFLCILAKVVKKAMKSNGPHPWKQVKGRIYSKFHQKRMEELTEVGLQNFFSLFLLLAAVAEVEDVASHVLDLLNFLKPAFVTSQRALIWKGHMAFLLMYAQKNLDIGVLAEKFSCAFREKAKEFLVSKNEEMVQRQTIWTLLSIYIDGVQEVFETSYCLYPSHEKLLNDGFSMLLRACRESELRTVLSFLQAVLARIRSMHQQLCQELQRDNVDLFVQSSLSAKERHLAAVASALWRHFFSFLKSQRMSQVVPFSQLADAAADFTLLAMDMPSTAPSDFQPQPVISIIQLFGWDDIICPQVVARYLSHVLQNSTLCEALSHSGYVSFQALTVRSWIRCVLQMYIKNLSGPDDLLIDKNLEEAVEKEYMKQLVKLTRLLFNLSEVKSIFSKAQVEYLSISEDPKKALVRFFEAVGVTYGNVQTLSDKSAMVTKSLEYLGEVLKYIKPYLGKKVFSAGLQLTYGMMGILVKSWAQIFATSKAQKLLFRIIDCLLLPHAVLQQEKELPAPMLSAIQKSLPLYLQGMCIVCCQSQNPNAYLNQLLGNVIEQYIGRFLPASPYVSDLGQHPVLLALRNTATIPPISSLKKCIVQVIRKSYLEYKGSSPPPRLASILAFILQLFKETNTDIYEVELLLPGILKCLVLVSEPQVKRLATENLQYMVKACQVGSEEEPSSQLTSVFRQFIQDYGMRYYYQVYSILETVATLDQQVVIHLISTLTQSLKDSEQKWGLGRNIAQREAYSKLLSHLGQMGQDEMQRLENDNT", "notes": "MMS22L, human, endogenous in HeLa cells; source: endogenous, HeLa"}},
  "key": {"FANCM [1]": {"target": "T1, FANCM (human (endogenous in HeLa), UniProt Q8IYD8 1-2048)", "T1 construct": "FANCM, human, endogenous in HeLa cells; also called endogenous FANCM; source: endogenous, HeLa", "T1 sequence (Q8IYD8 whole entry)": "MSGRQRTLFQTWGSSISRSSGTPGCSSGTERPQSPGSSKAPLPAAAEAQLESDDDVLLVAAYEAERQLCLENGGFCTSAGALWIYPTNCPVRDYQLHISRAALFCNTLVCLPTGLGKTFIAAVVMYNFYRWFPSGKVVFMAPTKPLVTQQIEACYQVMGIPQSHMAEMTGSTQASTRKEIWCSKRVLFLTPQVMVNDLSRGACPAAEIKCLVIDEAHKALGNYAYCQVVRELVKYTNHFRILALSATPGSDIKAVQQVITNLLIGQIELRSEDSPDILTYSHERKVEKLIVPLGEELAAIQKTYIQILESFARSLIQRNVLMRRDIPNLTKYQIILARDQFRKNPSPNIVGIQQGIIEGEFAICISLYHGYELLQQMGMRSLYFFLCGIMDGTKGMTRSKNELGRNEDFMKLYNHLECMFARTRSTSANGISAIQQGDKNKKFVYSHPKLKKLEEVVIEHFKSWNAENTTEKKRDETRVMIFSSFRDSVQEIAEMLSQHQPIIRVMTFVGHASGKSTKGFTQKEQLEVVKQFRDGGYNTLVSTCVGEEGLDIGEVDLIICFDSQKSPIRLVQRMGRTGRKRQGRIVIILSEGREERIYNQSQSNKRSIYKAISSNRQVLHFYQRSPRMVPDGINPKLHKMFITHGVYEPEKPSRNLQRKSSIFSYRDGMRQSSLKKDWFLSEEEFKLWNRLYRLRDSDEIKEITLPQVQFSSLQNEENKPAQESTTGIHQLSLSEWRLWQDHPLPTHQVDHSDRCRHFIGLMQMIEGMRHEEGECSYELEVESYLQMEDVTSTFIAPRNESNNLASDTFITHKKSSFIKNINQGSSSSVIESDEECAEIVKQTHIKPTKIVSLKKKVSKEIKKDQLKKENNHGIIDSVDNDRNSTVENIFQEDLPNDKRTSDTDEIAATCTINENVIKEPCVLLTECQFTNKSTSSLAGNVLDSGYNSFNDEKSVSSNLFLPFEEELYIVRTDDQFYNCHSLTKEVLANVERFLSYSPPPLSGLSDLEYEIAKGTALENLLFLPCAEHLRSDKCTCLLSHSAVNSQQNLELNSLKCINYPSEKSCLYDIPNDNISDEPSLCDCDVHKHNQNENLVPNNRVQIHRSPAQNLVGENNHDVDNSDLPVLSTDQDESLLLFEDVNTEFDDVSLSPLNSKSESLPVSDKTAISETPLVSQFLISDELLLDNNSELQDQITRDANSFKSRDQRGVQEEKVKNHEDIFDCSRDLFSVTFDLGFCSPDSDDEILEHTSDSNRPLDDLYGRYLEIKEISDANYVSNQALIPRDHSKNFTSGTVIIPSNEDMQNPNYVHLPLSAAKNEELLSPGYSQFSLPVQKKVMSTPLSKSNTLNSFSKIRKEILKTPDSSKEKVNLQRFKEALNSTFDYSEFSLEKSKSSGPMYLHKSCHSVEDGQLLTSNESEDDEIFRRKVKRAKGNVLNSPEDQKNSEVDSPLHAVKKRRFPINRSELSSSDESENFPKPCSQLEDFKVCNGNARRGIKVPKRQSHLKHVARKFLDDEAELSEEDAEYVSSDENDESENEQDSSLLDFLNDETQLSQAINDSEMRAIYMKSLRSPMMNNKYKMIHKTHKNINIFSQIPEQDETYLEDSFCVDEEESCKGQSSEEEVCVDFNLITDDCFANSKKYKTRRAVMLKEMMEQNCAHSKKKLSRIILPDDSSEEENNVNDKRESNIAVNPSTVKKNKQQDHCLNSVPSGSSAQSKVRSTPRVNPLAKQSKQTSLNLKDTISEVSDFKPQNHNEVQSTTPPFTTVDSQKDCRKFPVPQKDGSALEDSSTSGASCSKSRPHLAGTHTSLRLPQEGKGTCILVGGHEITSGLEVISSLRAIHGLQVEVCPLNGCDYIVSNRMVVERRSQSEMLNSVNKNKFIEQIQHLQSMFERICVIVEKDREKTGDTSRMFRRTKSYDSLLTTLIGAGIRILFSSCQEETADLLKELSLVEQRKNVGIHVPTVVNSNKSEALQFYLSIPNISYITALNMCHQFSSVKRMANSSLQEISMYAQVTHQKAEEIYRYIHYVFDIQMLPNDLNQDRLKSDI", "experiment": "proximity ligation; PLA in TMP/UVA-treated cells, early and late S phase sorted by flow cytometry; PCNA as marker of the S phase stage", "conditions": "partners not purified"}, "FANCM [2]": {"target": "T1, FANCM", "experiment": "proximity ligation; Duolink PLA in HeLa cells treated with 1.5 uM TMP and UVA (3 J/cm2), 60 min in fresh medium before fixation", "conditions": "partners not purified"}},
  "data": [
    {"binder": "B1", "values": [
      {"measurement": "fold increase of PLA signals, late S over early S phase", "setting": "FANCM [1]", "value": "~20", "unit": "fold"},
      {"measurement": "fold increase of PLA signals, TMP/UVA-treated over UVA-treated cells", "setting": "FANCM [2]", "value": "~20", "unit": "fold"}
    ]},
    {"binder": "B2", "values": [
      {"measurement": "fold increase of PLA signals, late S over early S phase", "setting": "FANCM [1]", "value": "~20", "unit": "fold"},
      {"measurement": "fold increase of PLA signals, TMP/UVA-treated over UVA-treated cells", "setting": "FANCM [2]", "value": "~20", "unit": "fold"}
    ]}
  ]
}
